This note sets out measurements from publication PMC5931557.

The nature of series [1]: cell surface staining, flow cytometry; reducing immunoblot. The conditions noted are these: glycan lost; control: WT mTRAIL-R. In general terms: Flow cytometry measures light scatter and fluorescence of single cells or particles in a stream.
Series [2] in a line: non-reducing SDS-PAGE immunoblot, transient overexpression. Particulars: glycan lost; control: WT mTRAIL-R.
Series [3] in a line: cell surface flow cytometry, 7 h TU. The conditions noted are these: glycan lost; control: untreated MEFs.
A short description of series [4]: streptavidin pulldown, non-reducing immunoblot. The conditions noted are these: glycan lost; control: untreated MEFs. In general terms: Immunoblotting shows a protein as a band on a membrane.

B1: mTRAIL-R: N99/N122/N150Q (protein)
parent chain: MEPPGPSTPTASAAARADHYTPGLRPLPKRRLLYSFALLLAVLQAVFVPVTANPAHNRPAGLQRPEESPSRGPCLAGQYLSEGNCKPCREGIDYTSHSNHSLDSCILCTVCKEDKVVETRCNITTNTVCRCKPGTFEDKDSPEICQSCSNCTDGEEELTSCTPRENRKCVSKTAWASWHKLGLWIGLLVPVVLLIGALLVWKTGAWRQWLLCIKRGCERDPESANSVHSSLLDRQTSSTTNDSNHNTEPGKTQKTGKKLLVPVNGNDSADDLKFIFEYCSDIVPFDSWNRLMRQLGLTDNQIQMVKAETLVTREALYQMLLKWRHQTGRSASINHLLDALEAVEERDAMEKIEDYAVKSGRFTYQNAAAQPETGPGGSQCV
For B1, in series [1], the expression_or_secretion result is “no change, the mean intensity of the signal was even weaker for the N99/N122/N150Q mTRAIL-R-expressing cells”. In addition, the oligomerisation entry in series [2] is given as “changes”.

B2: mTRAIL-R: tunicamycin (protein)
parent chain: B1 parent chain
With B2, in series [3], the localisation_or_trafficking result was “no change”. Besides, the oligomerisation entry in series [4] is “changes”.
